Data published in PMC4336547 (Cellular and molecular life sciences : CMLS, 2011).

T1: murine claudin-3 wild type, untagged (Cld3wt) (mouse), Q9Z0G9
T1 chain: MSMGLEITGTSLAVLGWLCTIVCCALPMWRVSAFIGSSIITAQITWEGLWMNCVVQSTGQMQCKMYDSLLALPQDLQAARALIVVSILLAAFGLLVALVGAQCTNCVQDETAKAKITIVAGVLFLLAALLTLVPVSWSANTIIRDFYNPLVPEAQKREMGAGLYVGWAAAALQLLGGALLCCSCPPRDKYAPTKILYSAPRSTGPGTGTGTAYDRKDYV


Experiments:
[1] = biological target: T1, murine claudin-3 wild type, untagged …; test: contact enrichment; details: remark: other sources report otherwise
FRET or BRET = biological target: the molecule itself; test: FRET or BRET

| Binder | percentage of contacts with EF > 1.5 (PE) [1] [%] | mean FRET efficiency against the negative control Cld5/CRFR1 (FRET or BRET) [fold] |
| --- | --- | --- |
| murine claudin-3 wild type, untagged (Cld3wt), Q9Z0G9 1-219 (natural protein) MSMGLEITGTSLAVLGWLCTIVCCALPMWRVSAFIGSSIITAQITWEGLWMNCVVQSTGQMQCKMYDSLLALPQDLQAARALIVVSILLAAFGLLVALVGAQCTNCVQDETAKAKITIVAGVLFLLAALLTLVPVSWSANTIIRDFYNPLVPEAQKREMGAGLYVGWAAAALQLLGGALLCCSCPPRDKYAPTKILYSAPRSTGPGTGTGTAYDRKDYV | 91 |  |
| mouse claudin-5 wild type, CFP or YFP fusion (Cld5wt-CFP / Cld5wt-YFP) (natural protein, UniProt O54942 1-218, looked up) MGSAALEILGLVLCLVGWVGLILACGLPMWQVTAFLDHNIVTAQTTWKGLWMSCVVQSTGHMQCKVYESVLALSAEVQAARALTVGAVLLALVALFVTLTGAQCTTCVAPGPVKARVALTGGALYAVCGLLALVPLCWFANIVVREFYDPTVPVSQKYELGAALYIGWAASALLMCGGGLVCCGAWVCTGRPEFSFPVKYSAPRRPTANGDYDKKNYV |  | 10 |
